These results are taken from patent US20240091321A1.

Changes are numbered by the printed parent chain.

In assay [1] the target is CI-MPR receptor. As to the kind of experiment: CIMPR binding assay, PPT1 conditioned media, dilution starting at 50 nM, bound PPT1 activity; the table prints no units, units of the axes.
The target in assay [2] is CI-MPR receptor. As to the kind of experiment: CIMPR binding assay, PPT1 conditioned media, curves starting at 25 nM, bound PPT1 activity; the table prints no units, units of the axes.

B1: PPT1-105 (enzyme, part only; not given: linker identity, part only)
fusion protein, part: SRALQHLDPPAPLPLVIWHGMGDSCCNPLSMGAIKKMVEKKIPGIYVLSLEIGKTLMEDVENSFFLNVNSQVTTVCQALAKDPKLQQGYNAMGFSQGGQFLRAVAQRCPSPPMINLISVGGQHQGVFGLPRCPGESSHICDFIRKTLNAGAYSKVVQERLVQAEYWHDPIKEDVYRNHSIFLADINQERGINESYKKNLMALKKFVMVKFLNDSIVDPVDSEWFGFYRSGQAKETIPLQETSLYTQDRLGLKEMDNAGQLVFLATEGDHLQLSEEWFYAHIIPFLGRPRAVPTQSRTLCGGELVDTLQFVCGDRGFLFSRGGGGSRGILEECCFRDCDLALLETYCATPARSE
Regarding B1, in the assay with CI-MPR receptor [1], the Bmax turned out to be 73.5 nmol/mL/h and the Kd turned out to be 4.45 nM. Moreover, in the assay with CI-MPR receptor [2], the Bmax was 73.5 nmol/mL/h and the Kd was 4.45 nM.

B2: PPT1-106 (enzyme, part only; not given: linker identity, part only)
fusion protein, part: B1 fusion protein, part with D336E
With B2, in the assay with CI-MPR receptor [1], the Bmax worked out at 91.4 nmol/mL/h and the dissociation constant (Kd) turned out to be 5.46 nM. Besides, in the assay with CI-MPR receptor [2], the Bmax amounted to 91.4 nmol/mL/h and the Kd was 5.46 nM.

For orientation: Kd means the free concentration of one partner at which half of the binding sites on the other are occupied at equilibrium, for simple one-to-one binding.
